Earlier results as cited in PMC7448383.

Target: GST (Schistosoma japonicum) [GST: P08515]

Sequence of GST (P08515 2-218): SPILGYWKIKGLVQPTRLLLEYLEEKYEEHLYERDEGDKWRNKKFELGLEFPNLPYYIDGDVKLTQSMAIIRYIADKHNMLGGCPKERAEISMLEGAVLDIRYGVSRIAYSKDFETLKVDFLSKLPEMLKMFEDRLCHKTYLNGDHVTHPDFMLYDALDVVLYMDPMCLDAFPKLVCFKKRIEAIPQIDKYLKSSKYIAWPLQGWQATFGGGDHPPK

For GST (from UniProt P08515), the Kd is listed as 340 nM.
